Results published in the nanobody polyreactivity screen of Harvey et al. (2022).

Assay: yeast display, Sf9 membrane polyspecificity reagent, FACS + sequencing; frameworks hold sequencing errors
In short: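 Galactose induction of a Saccharomyces cerevisiae BJ5465 synthetic nanobody display library ran 36–48 hours. The cells were then stained for 1 hour at 4 °C with 10% biotinylated, detergent-solubilized Sf9 membrane reagent, pulled down on streptavidin microbeads and FACS-sorted into low and high (top ~1%) gates on expression and reagent-binding fluorescence. Labels for polyreactivity follow the gate of origin.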

| Sequence | polyreactivity (PSR sort gate) |
| --- | --- |
| QVQLVESRRGLVQAGGSLRLSCAASGFTFYIYAMGWYRQAPGKERELVAAIIFRGGSTYYADSVKGRFTISRDNAKNTVYLQMNSLKREDTAVYYCAAVPRTYSGYYYWGHGTQVTVSS | high polyreactivity |
| QVQLEESGGGLVQAGGSLRLSCAASGFIFFAYAMGWYRQAPGKERELVAAISRTGGSTYYADSVKGRFTISRDNAKNTVYLLMNSLKPEDTAVYYCAAVVSRTYQWWTYDYWGQGTQVTVSS | high polyreactivity |
| QVQLVESGGGLVQAGGSLRLSCAASGSTFSHYAMGWYRQAPGKERELVATITYSGGSTYYADSVKGRFTISRDNAKNTVYLQMNSMKPEDTAVYYCAARPRFITYKRYYWGQGTQVTVSS | high polyreactivity |
| QVQLVESGGGLVQAGGSLRLSCAASGRIFRGYAMGWYRQAPGKERELVADISSGASTNYADSVKGRFTISRDNAKNTVYFQMNSLKPEDTAVYYCAAQHSVLAYFEYDYWGQGTQVTVSS | low polyreactivity |
| QVQLVESGGGLVQAGGSLRLSSAASGRIFDYYAMGWYRQAPGKESELVAAISSGSSTNYADSVKGRFTISRDNAKNTFYLQMNSLKPEDTAVYYCAATYGYLRRNHYNYWGQGTQVTVSS | high polyreactivity |
| QVQLVESGGGLVQAGGSLRLSCAASGSTFYKYAMGWYRQAPGIEPELVAAISRGGSTYYADSVKGRFTISRDNAKNTVYLQMNSLKPEDTAVYYCAAETVSYYSKYDYWGQGTQVTVSS | low polyreactivity |
| QVQLVESGGGLVQAGGSLRLSCAASGSTFSRNTMGWYRQAPGKERELVAAISKSGGRTYYADSVKGRFTISRDNAKNTVYLQMNSLKPEDTAVYYCNAAVYAYASDYWGQGTQVTVSS | high polyreactivity |
| QVQLVESGGGLVQAGGSLRLSSAASGSIFLLYAKGWDRQAPGKERELVAAISRSGDSTHYADSVKGRFTISRDNAKNTVYLQMNSLQPEDTAVYYCAADGYDPYGGLYAYWGHGTQVTVSS | low polyreactivity |
| QVQLVESGGGLVQAGGSLRLSCAASGSIFSSYAMGWYRQAPGKERELVAAISWRGGSTYYADSVKGRFTISRDNAKNTVYLQMNSLKPEDTAVYYCAAQYQYYGGRRYDYWGQGTQVTVSS | high polyreactivity |
| QVQLVESGGGLVQAGGILRLSCAASGSIFGGYGMGWYRQAPGKERELVAAITSVSSTYYADSVKGRFTISRDNAMNTVYVQMNSLKPEDTAVYYCAARPYPHSAYEGDYWGRGTQVTVSS | low polyreactivity |
| QDQLVESGGGLVQAGGSLRLSCAASVFIFYSYTRGWYRQAPGKERELVATISSNGGRTYYADSVKGRFTISRDNAKNTVYLQMNSLKPEDTAVYYCATDVPHGYYWSYGDYYCGQGTQVTVSS | low polyreactivity |
| QVQLVESGGGLVQAGGSLRLSCAASGLTFYYYAMGWYRQAPGKERELVASINRSSGSTYYADSVKGRFTISRDNAKNTVYLQMNSLKPEDTAVYYCAVKKHWPHPAYTRYYKYYYWGQGTQVTVSS | high polyreactivity |
| QVQLVESGGGLVQAGGSLRLSCAASGSIFDYNVMGWYRKAPGKERELVAAITYNDGSTYYADSVKGRFTISRDNAKNTVYLQMNSLKPEDTAVYYCAADYPGGGIYWYFYVYDYDYWGQGTQVTVSS | low polyreactivity |
| QVQLVESGGGLVQAGGSLRLTCAASGSIFGGYGMGWYRQAPGKERELVAAITSGTSTYYADSVKGRFTISRDNAKNTVYLQMNSLKPEDTAVYYCAARPYPHSAYEGDYWGRGTQVTVSS | low polyreactivity |
| QVQLVESGGGLVQAGGSLRLSCAASGRIFPRYAMGWYRQAPGKERELFATISSGGSTYYADSVKGRFTISRDNAKNTVYLQMNSLKPEDTAVYYCAARKRPYTVINGMDYWGQGTQVTVSS | low polyreactivity |
| QVQLVESDGGIVQAGGSLRLTCAASGIIFGYYVMGWYRQEPGKEGELVASITSGGSTNYADSVKGRFTISRDNAKNTVYLQMNSLKPEDTAVYYCAAEERTDTIACWRYPHDYWGQGTQVTVSS | low polyreactivity |

| Sequence | polyreactivity (PSR sort gate) |
| --- | --- |
| QVQLVESGGGLVQAGGRLRLSCAACGIIFLLYAMGWYRQAPGKERELVAAITNGGRTNYADSVQGRFTISRDNAKNTVYLQMNSRKPEDTALYYCNAVLSVPDYTLFDYWGQGTQVTVSS | low polyreactivity |
| QVQLVESGGGLVQAGGSLRLSCAASGSIFSAYAMGWYRQAPGKERELVAAISSRGSRTYYAYSVKGRFTISRDYAKNSVYLQMNSLKPEDTAVYYCAADPFSSYYKMDYWGQGTQVTVSS | high polyreactivity |
| QVQLVESGGGLVQAGGSLRLSCAASVFTFNDYAMGWYRQAPGKERELVAAIDWSGGRTYYADSVKGRFTISRDNAKNTVYLQMNSLKPEDTAVYYCAAVLYSRLYWYRLDYWGQGTQVTVSS | low polyreactivity |
| QVQLVESGGGLVQAGGSLRLSCAASGSTFRRYAMGWYRQAPGKERELVASISRSGGSTYYADSVKGRFTISRDNAKNTVYLQMNSLKPEDTAVYYCAKKPYKSAYDYSSAYDYWGQGTQVTVSS | high polyreactivity |
| QVQLEESGGGLVQAGGSLRLSCAASGRIIRINPMGLYRQAPGKERELVAAITRGGTTYADSVKGRFTFSRDNAKNTVYLQMNSLKPEDTAVYYCNARTGRSPTGFLYWGQGTQVTVSS | high polyreactivity |
| QVQLVESGGGLVQAGGSLRLSCAASGSIIGDNAMGWSRQAPGKERELVADITNGGSTNYADSVKGRFTISRDNAKNTVYLQMNSLKPEDTAVYYCNKDIVWYGNYGYWGQGTQVTVSS | low polyreactivity |
| QVQLVESGGGLVQAGGSLRLSCAASGRIFRSNAMGWYRQAPGKERELLAAISGSGSTTNYADSVKGRITISRDNAKNTVYLQMNSLKPEDTAVYYCATGKRGVSGRGFRYDYWGLGTQVTVSS | high polyreactivity |
| QVQLQESGGDLEQAGGSLRLSCTASGTNSDVRVMGWYRQAPGKERELVATISYVTITYYADSVKGRLTISRDSEKHRVSADDEPETGRYRGVLLRYYWGLGTQVTVSS | low polyreactivity |
| QFQLVESGGGLVQAGGSLRLSCAASGRIFVPNAMGWYRQAPGKEREFVAAINSGGSTYYADSVKGRFTISRDNAKNTVYLQMNSMKPEDTAVYYCAAVDFSSGYYGRLARYYYWGQGTQVTVSS | high polyreactivity |
| QVQLVESGGGLVQAGGSLRLSCAASGIIFTWYAMGWYRQAPGKERELVAAITSGNTYYADSVKGRFTISRDNAKNTVYLQMNSLKPEDTAVYYCNAVYSYTDEYDYWGQGTQVTVSS | high polyreactivity |
| QVQLVESGGGLVQAGGSLRLSCAASGRTFSVNAMGWYRQAPGKERELVAAIAWDGGSTYYADSVKGRFTISRDNAKNTVYLQMNSLKPEDTAVYYCNKDLYYAYDYWGQGTQVTVSS | low polyreactivity |
| QVQLQERGGGLMQAGGSQRLSCAASGSISYYSDMGWYRQAPGTEREFVAGIGYGTTTNYADSVKGRFTTSRDNAKNTVDLQMISMKPEDTAVYYCAAYQGNGYEFYYWGQGTQVTVRS | low polyreactivity |
| KVQLVESGGGLVQAGASLRLSCAASGSIFATYAMGWYREEPGKERELVAAITSSDGSTNYADSVKGRFTISRDYAKNTVYLQMNSLKPEDTAVYYCATVSPDRTDSDSGFDAGYDYWGQGTQVTLSS | low polyreactivity |
| QVQLVESGAGLVQAGGSLRLSCAASGITFYDYAMAWYRQAPGKERELVAAISRSGITYYADSVKGRFTISRDNAKNTVYLQMNSLKPEVTAVYYCAAGRSFDQSMYYWGQGTQVTVSS | high polyreactivity |
| QVQLVESGGGLVQAGGSLRLSCSASGSTFVVYAMGWSRQAPGKERELVAAISESGSSTYYADSVKGRFTISRDNAKNTVYLQMNSLKPEDTAVYYCNALYYDWHPEYQVIFSDFYYWGQGTQVTVSS | low polyreactivity |
| QVQLVESGGGLVQAGGSLRLSCAASGSTFLGYAMGWSRQAPGKERELVAAINLSTSGTYYADSVKGRFTISRDNAKNTVYLQMNSLKPEDTAVYYCAAAYSNINYYYQYYYWGQGTQVTVSS | low polyreactivity |
